Two molecules from paper doi:10.1101/2020.01.24.918722, “Calsyntenin-3 directly interacts with neurexins to orchestrate excitatory synapse development in the hippocampus” (bioRxiv, 2020) can be followed below.

Sequences and labels used below:
B1: Ig-mNrxn1β^+SS4 (Fc fusion)
chain: not shown
notes: signal peptide in the construct; extracellular region of mouse neurexin-1β with the SS4 insert, aa 1-389; also called Ig-Nrxn1β^+SS4; pCMV-IgC-mNrxn1β^+SS4; source: HEK293T, purified (protein A-Sepharose)
B2: His-HA-Clstn3 Cad (extracellular, cadherin domains) (domain or fragment, mouse, UniProt Q99JH7 21-269, looked up)
chain: KANKHKPWIEAEYQGIVMENDNTVLLNPPLFALDKDAPLRYAGEICGFRLHGSGVPFEAVILDKATGEGLIRAKEPVDCEAQKEHTFTIQAYDCGEGPDGTNTKKSHKATVHVRVNDVNEFAPVFVERLYRAAVTEGKLYDRILRVEAIDGDCSPQYSQICYYEILTPNTPFLIDNDGNIENTEKLQYSGEKLYKFTVTAYDCGKKRAADDAEVEIQVKPTCKPSWQGWNKRIEYAPGAGSLALFPGIR
notes: mouse calsyntenin-3, aa 21-269 (cadherin domains); source: purified recombinant protein (pCAGGS vector); not shown: His6, N-terminal, kept; HA, N-terminal, kept

Experiment [1] deals with T1, His-HA-Clstn3 Ecto (extracellular domain of mouse Clstn3) (mouse, UniProt Q99JH7 21-846).
T1 construct: extracellular domain of mouse calsyntenin-3, aa 21-846; also called His-HA-Clstn3 Full (methods); source: purified recombinant protein (pCAGGS vector); not shown: His6, N-terminal, kept; HA, N-terminal, kept
T1 sequence (looked up): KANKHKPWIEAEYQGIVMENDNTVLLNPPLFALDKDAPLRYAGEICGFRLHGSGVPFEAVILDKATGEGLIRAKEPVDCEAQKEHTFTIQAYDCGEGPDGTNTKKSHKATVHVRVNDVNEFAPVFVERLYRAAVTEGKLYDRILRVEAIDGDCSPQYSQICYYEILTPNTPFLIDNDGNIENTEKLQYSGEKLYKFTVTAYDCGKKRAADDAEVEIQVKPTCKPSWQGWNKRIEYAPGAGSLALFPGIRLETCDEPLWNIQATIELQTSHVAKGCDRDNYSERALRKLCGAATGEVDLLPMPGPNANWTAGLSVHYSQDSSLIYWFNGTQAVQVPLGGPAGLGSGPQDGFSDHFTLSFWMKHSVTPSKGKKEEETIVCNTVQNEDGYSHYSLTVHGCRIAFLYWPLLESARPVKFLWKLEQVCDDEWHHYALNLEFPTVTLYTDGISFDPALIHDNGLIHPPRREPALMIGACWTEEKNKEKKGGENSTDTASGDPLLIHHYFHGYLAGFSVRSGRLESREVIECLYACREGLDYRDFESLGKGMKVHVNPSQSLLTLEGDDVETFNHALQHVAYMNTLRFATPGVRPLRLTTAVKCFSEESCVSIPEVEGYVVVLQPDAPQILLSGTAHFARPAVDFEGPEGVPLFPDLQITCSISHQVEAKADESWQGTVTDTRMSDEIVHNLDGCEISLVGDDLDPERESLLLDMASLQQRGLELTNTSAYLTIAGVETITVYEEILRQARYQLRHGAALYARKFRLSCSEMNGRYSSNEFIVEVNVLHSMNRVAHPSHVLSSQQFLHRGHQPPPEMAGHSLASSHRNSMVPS
In words: pull-down; direct protein-interaction assay: 10 μg purified Ig-Nrxn1 with 4 μg purified His-HA-Clstn3, 2 h at 4°C, 25 mM Tris pH 7.5, 30 mM MgCl2, 40 mM NaCl, 0.5% Triton X-100; precipitated with Talon resin, blot with anti-human IgG. The note with it: both partners purified.

The experiment “Ig-mNrxn1β^+SS4” concerns the target B1. The experiment is described as above. The note with it: both partners purified.

Sequence of Ig-mNrxn1β^+SS4 (P0DI97 47-389): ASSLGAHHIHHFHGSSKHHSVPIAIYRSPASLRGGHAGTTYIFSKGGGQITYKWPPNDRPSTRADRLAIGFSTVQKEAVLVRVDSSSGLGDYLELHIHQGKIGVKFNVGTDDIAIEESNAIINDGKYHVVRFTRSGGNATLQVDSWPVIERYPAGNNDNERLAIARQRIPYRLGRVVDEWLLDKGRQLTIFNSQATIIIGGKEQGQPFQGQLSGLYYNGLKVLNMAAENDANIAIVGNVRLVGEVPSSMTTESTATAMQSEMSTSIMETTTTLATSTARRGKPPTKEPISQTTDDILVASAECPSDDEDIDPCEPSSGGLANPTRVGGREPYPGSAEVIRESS

B1: the binding result in experiment [1] is recorded as “binds”.
For the molecule B2, the binding result with Ig-mNrxn1β^+SS4 is given as “binds”.
